Test results taken from the supplement of paper PMC7877785.
± gives the uncertainty stated by the source.

Test: self-splicing fitness, log relative to wild type (ln ratio); higher = more splicing; Tetrahymena group I intron in knt gene, E. coli kanamycin selection, DiMSum; sequences stand for … in CUCUCU…GGAGGGAAAAGUUAUCAGGCAUGCACCUGGUAGCUAGUCUUUAAACCAAUAGAUUGCAUCGGUUUAAAAGGCAAGACCGUCAAAUUGCGGGAAAGGGGUCAACAGCCGUUCAGUACCAAGUCUCAGGGGAAACUUUGAGAUGGCCUUGCAAAGGGUAUGGUAAUAAGCUGACGGACAUGGUCCUAACCACGCAGCCAAGUCCUAAGUCAACAGAUCUUCUGUUGAUAUGGAUGCAGUUCACAGACUAAAUGUCGGUCGGGGAAGAUGUAUUCUUCUCAUAAGAUAUAGUCGGACCUCUCCUUAAUGGGAGCUAGCGGAUGAAGUGAUGCAACACUGGAGCCGCUGGGAACUAAUUUGUAUGCGAAAGUAUAUUGAUUAGUUUUGGAGUACUCGUGGUCG
How it was run: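 Library with all eight P1ex-region intron nucleotides randomised, intron inside the knt kanamycin-resistance gene on pET-22b(+), in E. coli BL21(DE3). Cells grew overnight at 37°C or 30°C on LB agar with or without 25 μg/mL kanamycin (plus 100 μg/mL carbenicillin, 50 μM IPTG, 0.2% rhamnose), in six replicate transformations. Pooled colonies were amplicon-sequenced on Illumina HiSeq 2500. DiMSum fitness is the error-weighted combination of wild-type-normalised replicate fold changes, kanamycin versus none.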

Sequence | self-splicing fitness (ln) (30 °C) | self-splicing fitness (ln) (37 °C)
UGCCAGCAAUAUUACGAGAG | -4.28 ± 0.21 | -2.56 ± 0.14
UGCCAGCAAUAUUACGAGCG | -0.919 ± 0.066 | -0.309 ± 0.079
UGCCAGCAAUAUUACGAGGA | -1.49 ± 0.17 | -2.37 ± 0.22
UGCCAGCAAUAUUACGCGCA | -2.51 ± 0.28 | -1.06 ± 0.16
UGCCAGCAAUAUUACGCGCC | -1.15 ± 0.17 | -0.705 ± 0.23
UGCCAGCAAUAUUACGCUGA | -3.01 ± 0.19 | -2.21 ± 0.21
UGCCAGCAAUAUUACGCUUU | -2.03 ± 0.079 | -1.76 ± 0.074
UGCCAGCAAUAUUACGGACC | -0.869 ± 0.2 | 0.326 ± 0.23
UGCCAGCAAUAUUACGGACG | -0.337 ± 0.06 | -0.0244 ± 0.076
UGCCAGCAAUAUUACGGCCA | -0.44 ± 0.076 | -0.0136 ± 0.086
UGCCAGCAAUAUUACGGCCU | -0.579 ± 0.1 | -0.213 ± 0.12
UGCCAGCAAUAUUACGGGGA | -1.8 ± 0.087 | -0.863 ± 0.11
UGCCAGCAAUAUUACGGGUC | -3.53 ± 0.23 | -2.34 ± 0.18
UGCCAGCAAUAUUACGUAAG | -2 ± 0.067 | -1.24 ± 0.083
UGCCAGCAAUAUUACGUAGA | -1.45 ± 0.056 | -0.504 ± 0.065
UGCCAGCAAUAUUACGUAGC | -3.9 ± 0.37 | -1.64 ± 0.17
UGCCAGCAAUAUUACGUCCU | -1.6 ± 0.14 | 0.244 ± 0.14
UGCCAGCAAUAUUACGUGAG | -2.12 ± 0.11 | -0.54 ± 0.097
UGCCAGCAAUAUUACGUGUU | -2.74 ± 0.1 | -1.67 ± 0.075
UGCCAGCAAUAUUACGUUAG | -2.26 ± 0.12 | -0.975 ± 0.13
UGCGAGCAAUAUUACGAGAG | -2.89 ± 0.15 | 
UGCGAGCAAUAUUACGAGGC | -2.74 ± 0.23 | -2 ± 0.23
UGCGAGCAAUAUUACGCGUC | -2.18 ± 0.26 | 
UGCGAGCAAUAUUACGCUAC |  | -0.55 ± 0.46
UGCGAGCAAUAUUACGGAUU |  | -3.08 ± 0.4
UGCGAGCAAUAUUACGGGAC | -3.69 ± 0.39 | -1.88 ± 0.23

Sequence | self-splicing fitness (ln) (30 °C) | self-splicing fitness (ln) (37 °C)
UGCGAGCAAUAUUACGGGAU | -3.78 ± 0.35 | -2.21 ± 0.28
UGCGAGCAAUAUUACGGGUG | -1.72 ± 0.11 | -1.49 ± 0.12
UGCGAGCAAUAUUACGGUAC | -4.18 ± 0.3 | -3.26 ± 0.23
UGCGAGCAAUAUUACGGUAG | -3.36 ± 0.24 | -3.01 ± 0.32
UGCGAGCAAUAUUACGUAUU | -3.07 ± 0.17 | -2.58 ± 0.2
UGCGAGCAAUAUUACGUCUA | -0.974 ± 0.15 | -0.453 ± 0.17
UGCGAGCAAUAUUACGUGAU | -2.47 ± 0.23 | -2.09 ± 0.4
UGCUAGCAAUAUUACGAAUA | -1.27 ± 0.13 | -1.16 ± 0.12
UGCUAGCAAUAUUACGACCU | -0.548 ± 0.088 | -0.345 ± 0.1
UGCUAGCAAUAUUACGACUG | 0.165 ± 0.081 | 0.259 ± 0.11
UGCUAGCAAUAUUACGAGAG | -2.79 ± 0.22 | -2.13 ± 0.23
UGCUAGCAAUAUUACGAUAA | -1.64 ± 0.15 | -0.358 ± 0.14
UGCUAGCAAUAUUACGAUUC |  | -2.33 ± 0.49
UGCUAGCAAUAUUACGCACG | -1.27 ± 0.12 | -1.18 ± 0.16
UGCUAGCAAUAUUACGCCAA |  | 0.0147 ± 0.24
UGCUAGCAAUAUUACGCUCC | -2.06 ± 0.23 | -0.757 ± 0.24
UGCUAGCAAUAUUACGGAUA | -1.44 ± 0.11 | -1.1 ± 0.13
UGCUAGCAAUAUUACGGCAU | -3.65 ± 0.28 | -2.37 ± 0.31
UGCUAGCAAUAUUACGGCGU | -3.57 ± 0.22 | -1.89 ± 0.17
UGCUAGCAAUAUUACGGCUA | -0.795 ± 0.17 | 0.345 ± 0.15
UGCUAGCAAUAUUACGGGCC | -1.55 ± 0.14 | -1.33 ± 0.15
UGCUAGCAAUAUUACGGGCG | -1.45 ± 0.1 | -1.82 ± 0.11
UGCUAGCAAUAUUACGGGGA | -0.989 ± 0.14 | 0.0335 ± 0.14
UGCUAGCAAUAUUACGGGGU | -2.82 ± 0.21 | -2.09 ± 0.21
UGCUAGCAAUAUUACGGUAU | -2.28 ± 0.1 | -2.43 ± 0.14
UGCUAGCAAUAUUACGUAGG | -2.18 ± 0.14 | -0.778 ± 0.2

Sequence | self-splicing fitness (ln) (30 °C) | self-splicing fitness (ln) (37 °C)
UGCUAGCAAUAUUACGUGAU | -1.88 ± 0.13 | -1.39 ± 0.16
UGCUAGCAAUAUUACGUGUA | -1.74 ± 0.1 | -1.26 ± 0.1
UGCUAGCAAUAUUACGUUCC |  | -0.823 ± 0.42
UGCUAGCAAUAUUACGUUUC | -4.01 ± 0.42 | -2.06 ± 0.34
UGGAAGCAAUAUUACGAACC | -1.6 ± 0.13 | -0.663 ± 0.12
UGGAAGCAAUAUUACGAAGG | -2.12 ± 0.14 | -0.449 ± 0.18
UGGAAGCAAUAUUACGACCG | -0.874 ± 0.13 | -0.818 ± 0.17
UGGAAGCAAUAUUACGACUC | -0.463 ± 0.11 | -0.577 ± 0.16
UGGAAGCAAUAUUACGAGAC | -3.31 ± 0.48 | 
UGGAAGCAAUAUUACGCAUG | -1.02 ± 0.096 | -0.486 ± 0.12
UGGAAGCAAUAUUACGCCAC | -2.25 ± 0.42 | 
UGGAAGCAAUAUUACGCCGG | -0.646 ± 0.17 | -0.109 ± 0.16
UGGAAGCAAUAUUACGCCGU | -2.99 ± 0.48 | -1.87 ± 0.44
UGGAAGCAAUAUUACGCUAA | -1.31 ± 0.32 | -0.826 ± 0.38
UGGAAGCAAUAUUACGGAAG | -1.69 ± 0.12 | -1.46 ± 0.17
UGGAAGCAAUAUUACGGCAU | -1.94 ± 0.19 | -1.13 ± 0.19
UGGAAGCAAUAUUACGGCGU | -1.16 ± 0.13 | 0.0292 ± 0.12
UGGAAGCAAUAUUACGGCUC | -1.89 ± 0.49 | -1.42 ± 0.36
UGGAAGCAAUAUUACGGGAA | -2.15 ± 0.21 | -1.19 ± 0.16
UGGAAGCAAUAUUACGGGAG | -1.73 ± 0.37 | -2.09 ± 0.25
UGGAAGCAAUAUUACGGGGC | -3.24 ± 0.44 | -1.35 ± 0.26
UGGAAGCAAUAUUACGGGGU | -3.12 ± 0.31 | -1.99 ± 0.35
UGGAAGCAAUAUUACGGGUA | -1.67 ± 0.13 | -1.05 ± 0.13
UGGAAGCAAUAUUACGGUCC | -2.67 ± 0.15 | -1.51 ± 0.14
UGGAAGCAAUAUUACGGUGA | -1.41 ± 0.12 | -0.4 ± 0.13
UGGAAGCAAUAUUACGGUGG | -1.42 ± 0.091 | -0.276 ± 0.11
